Assay [1] concerns the target T1, human amylin receptor (amylin 3(a) receptor: human calcitonin receptor plus RAMP-3) (human, UniProt P30988 25-474; O60896 24-148, limits assumed).
T1 sequence (looked up) 1: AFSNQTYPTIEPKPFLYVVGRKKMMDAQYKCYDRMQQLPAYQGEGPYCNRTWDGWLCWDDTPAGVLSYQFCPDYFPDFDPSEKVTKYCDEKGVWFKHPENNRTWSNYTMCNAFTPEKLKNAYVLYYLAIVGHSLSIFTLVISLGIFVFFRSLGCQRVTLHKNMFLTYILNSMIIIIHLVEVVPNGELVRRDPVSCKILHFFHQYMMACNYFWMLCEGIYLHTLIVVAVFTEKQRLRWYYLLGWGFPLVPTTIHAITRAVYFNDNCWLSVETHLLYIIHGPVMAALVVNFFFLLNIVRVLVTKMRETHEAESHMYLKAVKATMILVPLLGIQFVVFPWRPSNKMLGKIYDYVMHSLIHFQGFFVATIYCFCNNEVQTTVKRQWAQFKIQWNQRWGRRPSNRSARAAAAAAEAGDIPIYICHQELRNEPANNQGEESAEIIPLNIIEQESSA
T1 sequence (looked up) 2: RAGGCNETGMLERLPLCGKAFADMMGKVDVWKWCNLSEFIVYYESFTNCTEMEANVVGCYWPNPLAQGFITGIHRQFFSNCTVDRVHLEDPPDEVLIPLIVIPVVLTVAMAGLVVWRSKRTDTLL
The assay is described as follows: cell-based or functional assay.

The target of assay [2] is T2, human calcitonin receptor (human, UniProt P30988 25-474).
T2 sequence (looked up): T1 sequence (looked up) 1
The assay is described as follows: cell-based or functional assay.

Numbered stars: 1 amine (or outer) side, 2 acyl side, 3 side chain; on linkers, the order of the positions; unused ones are H or OH. Bridge positions count the residues as written; N and C are the ends. Side chains are listed from the residue outwards. Ends that are not written are not given here. * marks the point of attachment. C20 diacid = O=C(O)CCCCCCCCCCCCCCCCCCC(=O)*; γGlu = O=C(O)[C@H](CCC(=O)[*:2])N[*:1]; AEEA = NCCOCCOCC(=O)O

B1: N^α1-[(4S)-4-carboxy-4-(19-carboxynonadecanoylamino)butanoyl]-[Glu14,Arg17,Pro21,Pro27,Pro31]-h-amylin (peptide)
peptide: {C20 diacid-γGlu}-KCNTATCATQRLAEFLRHSSPNFGAIPSSTPVGSNTY-NH2
modifications: disulfide 2-7
SMILES: CC[C@H](C)[C@H](NC(=O)[C@H](C)NC(=O)CNC(=O)[C@H](Cc1ccccc1)NC(=O)[C@H](CC(N)=O)NC(=O)[C@@H]1CCCN1C(=O)[C@H](CO)NC(=O)[C@H](CO)NC(=O)[C@H](Cc1c[nH]cn1)NC(=O)[C@H](CCCNC(=N)N)NC(=O)[C@H](CC(C)C)NC(=O)[C@H](Cc1ccccc1)NC(=O)[C@H](CCC(=O)O)NC(=O)[C@H](C)NC(=O)[C@H](CC(C)C)NC(=O)[C@H](CCCNC(=N)N)NC(=O)[C@H](CCC(N)=O)NC(=O)[C@@H](NC(=O)[C@H](C)NC(=O)[C@@H]1CSSC[C@H](NC(=O)[C@H](CCCCN)NC(=O)CC[C@H](NC(=O)CCCCCCCCCCCCCCCCCCC(=O)O)C(=O)O)C(=O)N[C@@H](CC(N)=O)C(=O)N[C@@H]([C@@H](C)O)C(=O)N[C@@H](C)C(=O)N[C@@H]([C@@H](C)O)C(=O)N1)[C@@H](C)O)C(=O)N1CCC[C@H]1C(=O)N[C@@H](CO)C(=O)N[C@@H](CO)C(=O)N[C@H](C(=O)N1CCC[C@H]1C(=O)N[C@H](C(=O)NCC(=O)N[C@@H](CO)C(=O)N[C@@H](CC(N)=O)C(=O)N[C@H](C(=O)N[C@@H](Cc1ccc(O)cc1)C(N)=O)[C@@H](C)O)C(C)C)[C@@H](C)O
notes: Synthetic acylated analogue of human amylin; also called compound 31
For the molecule B1, in assay [1], the “Ratio hCT/hAmylin funct.” value was determined as 6.4 ratio and the “hAmylin-R funct. EC50” value was found to be 0.112 nM. In assay [2], the “hCTR funct. EC50” value turned out to be 0.717 nM.

B2: N^ε1-[2-[2-[2-[[(4S)-4-carboxy-4-(19-carboxynonadecanoylamino)butanoyl]amino]ethoxy]ethoxy]acetyl]-[Arg17,Pro21,Pro27,Glu35]-h-amylin (peptide)
peptide: K([AEEA-γGlu-C20 diacid])CNTATCATQRLANFLRHSSPNFGAIPSSTNVGSETY-NH2
modifications: disulfide 2-7; N-terminus assumed
SMILES: CC[C@H](C)[C@H](NC(=O)[C@H](C)NC(=O)CNC(=O)[C@H](Cc1ccccc1)NC(=O)[C@H](CC(N)=O)NC(=O)[C@@H]1CCCN1C(=O)[C@H](CO)NC(=O)[C@H](CO)NC(=O)[C@H](Cc1c[nH]cn1)NC(=O)[C@H](CCCNC(=N)N)NC(=O)[C@H](CC(C)C)NC(=O)[C@H](Cc1ccccc1)NC(=O)[C@H](CC(N)=O)NC(=O)[C@H](C)NC(=O)[C@H](CC(C)C)NC(=O)[C@H](CCCNC(=N)N)NC(=O)[C@H](CCC(N)=O)NC(=O)[C@@H](NC(=O)[C@H](C)NC(=O)[C@@H]1CSSC[C@H](NC(=O)[C@@H](N)CCCCNC(=O)COCCOCCNC(=O)CC[C@H](NC(=O)CCCCCCCCCCCCCCCCCCC(=O)O)C(=O)O)C(=O)N[C@@H](CC(N)=O)C(=O)N[C@@H]([C@@H](C)O)C(=O)N[C@@H](C)C(=O)N[C@@H]([C@@H](C)O)C(=O)N1)[C@@H](C)O)C(=O)N1CCC[C@H]1C(=O)N[C@@H](CO)C(=O)N[C@@H](CO)C(=O)N[C@H](C(=O)N[C@@H](CC(N)=O)C(=O)N[C@H](C(=O)NCC(=O)N[C@@H](CO)C(=O)N[C@@H](CCC(=O)O)C(=O)N[C@H](C(=O)N[C@@H](Cc1ccc(O)cc1)C(N)=O)[C@@H](C)O)C(C)C)[C@@H](C)O
notes: Synthetic acylated analogue of human amylin; also called compound 26
As to B2, in assay [1], the “Ratio hCT/hAmylin funct.” value stood at 29.9 ratio and the “hAmylin-R funct. EC50” value is 0.212 nM. Also, the “hCTR funct. EC50” value in assay [2] stood at 6.34 nM.

B3: N^ε1-[2-[2-[2-[[(4S)-4-carboxy-4-(19-carboxynonadecanoylamino)butanoyl]amino]ethoxy]ethoxy]acetyl]-[Arg17,Pro21,Pro27,Pro28,Pro31]-h-amylin (peptide)
peptide: K([AEEA-γGlu-C20 diacid])CNTATCATQRLANFLRHSSPNFGAIPPSTPVGSNTY-NH2
modifications: disulfide 2-7
notes: Synthetic acylated analogue of human amylin; also called compound 53
Take B3: in assay [1], the “Ratio hCT/hAmylin funct.” value is 9.8 ratio and the “hAmylin-R funct. EC50” value is 0.064 nM. Further, the “hCTR funct. EC50” value in assay [2] worked out at 0.625 nM.

B4: N^α1-[(4S)-4-carboxy-4-(19-carboxynonadecanoylamino)butanoyl]-[Glu14,Arg17,Pro21,Pro27]-h-amylin (peptide)
peptide: KCNTATCATQRLAEFLRHSSPNFGAIPSSTNVGSNTY
modifications: C20 diacid-gGlu on the alpha amino group of the N-terminal residue; disulfide bridge Cys2-Cys7; C-terminal amide
notes: Synthetic acylated analogue of human amylin; also called compound 9
For B4, in assay [1], the “Ratio hCT/hAmylin funct.” value came out at 7.4 ratio and the “hAmylin-R funct. EC50” value turned out to be 0.175 nM. Also, the “hCTR funct. EC50” value in assay [2] turned out to be 1.29 nM.

B5: N^α1-[(4S)-4-carboxy-4-(19-carboxynonadecanoylamino)butanoyl]-[His14,Arg17,Pro21,Pro27,Glu35]-h-amylin (peptide)
peptide: {C20 diacid-γGlu}-KCNTATCATQRLAHFLRHSSPNFGAIPSSTNVGSETY-NH2
modifications: disulfide 2-7
SMILES: CC[C@H](C)[C@H](NC(=O)[C@H](C)NC(=O)CNC(=O)[C@H](Cc1ccccc1)NC(=O)[C@H](CC(N)=O)NC(=O)[C@@H]1CCCN1C(=O)[C@H](CO)NC(=O)[C@H](CO)NC(=O)[C@H](Cc1c[nH]cn1)NC(=O)[C@H](CCCNC(=N)N)NC(=O)[C@H](CC(C)C)NC(=O)[C@H](Cc1ccccc1)NC(=O)[C@H](Cc1c[nH]cn1)NC(=O)[C@H](C)NC(=O)[C@H](CC(C)C)NC(=O)[C@H](CCCNC(=N)N)NC(=O)[C@H](CCC(N)=O)NC(=O)[C@@H](NC(=O)[C@H](C)NC(=O)[C@@H]1CSSC[C@H](NC(=O)[C@H](CCCCN)NC(=O)CC[C@H](NC(=O)CCCCCCCCCCCCCCCCCCC(=O)O)C(=O)O)C(=O)N[C@@H](CC(N)=O)C(=O)N[C@@H]([C@@H](C)O)C(=O)N[C@@H](C)C(=O)N[C@@H]([C@@H](C)O)C(=O)N1)[C@@H](C)O)C(=O)N1CCC[C@H]1C(=O)N[C@@H](CO)C(=O)N[C@@H](CO)C(=O)N[C@H](C(=O)N[C@@H](CC(N)=O)C(=O)N[C@H](C(=O)NCC(=O)N[C@@H](CO)C(=O)N[C@@H](CCC(=O)O)C(=O)N[C@H](C(=O)N[C@@H](Cc1ccc(O)cc1)C(N)=O)[C@@H](C)O)C(C)C)[C@@H](C)O
notes: Synthetic acylated analogue of human amylin; also called compound 30
As for B5, in assay [1], the “Ratio hCT/hAmylin funct.” value turned out to be 12.6 ratio and the “hAmylin-R funct. EC50” value came to 0.134 nM. Moreover, the “hCTR funct. EC50” value in assay [2] is 1.68 nM.

B6: N^ε1-[2-[2-[2-[[2-[2-[2-[[(4S)-4-carboxy-4-(19-carboxynonadecanoylamino)butanoyl]amino]ethoxy]ethoxy]acetyl]amino]ethoxy]ethoxy]acetyl]-[Arg17,Pro21,Pro27,Glu35 … (peptide)
peptide: K([AEEA-AEEA-γGlu-C20 diacid])CNTATCATQRLANFLRHSSPNFGAIPSSTNVGSETY-NH2
modifications: disulfide 2-7; N-terminus assumed
SMILES: CC[C@H](C)[C@H](NC(=O)[C@H](C)NC(=O)CNC(=O)[C@H](Cc1ccccc1)NC(=O)[C@H](CC(N)=O)NC(=O)[C@@H]1CCCN1C(=O)[C@H](CO)NC(=O)[C@H](CO)NC(=O)[C@H](Cc1c[nH]cn1)NC(=O)[C@H](CCCNC(=N)N)NC(=O)[C@H](CC(C)C)NC(=O)[C@H](Cc1ccccc1)NC(=O)[C@H](CC(N)=O)NC(=O)[C@H](C)NC(=O)[C@H](CC(C)C)NC(=O)[C@H](CCCNC(=N)N)NC(=O)[C@H](CCC(N)=O)NC(=O)[C@@H](NC(=O)[C@H](C)NC(=O)[C@@H]1CSSC[C@H](NC(=O)[C@@H](N)CCCCNC(=O)COCCOCCNC(=O)COCCOCCNC(=O)CC[C@H](NC(=O)CCCCCCCCCCCCCCCCCCC(=O)O)C(=O)O)C(=O)N[C@@H](CC(N)=O)C(=O)N[C@@H]([C@@H](C)O)C(=O)N[C@@H](C)C(=O)N[C@@H]([C@@H](C)O)C(=O)N1)[C@@H](C)O)C(=O)N1CCC[C@H]1C(=O)N[C@@H](CO)C(=O)N[C@@H](CO)C(=O)N[C@H](C(=O)N[C@@H](CC(N)=O)C(=O)N[C@H](C(=O)NCC(=O)N[C@@H](CO)C(=O)N[C@@H](CCC(=O)O)C(=O)N[C@H](C(=O)N[C@@H](Cc1ccc(O)cc1)C(N)=O)[C@@H](C)O)C(C)C)[C@@H](C)O
notes: Synthetic acylated analogue of human amylin; also called compound 25
B6: in assay [1], the “Ratio hCT/hAmylin funct.” value was 46.2 ratio and the “hAmylin-R funct. EC50” value is 0.217 nM. Besides, the “hCTR funct. EC50” value in assay [2] stood at 10 nM.

The record behind these values is patent publication US20140087995A1 (published 2014).
